Fewer inactive variants are shown than the library holds.
B1: TPR 5TU (parent)
chain: GGAUCUUCUCGAUCUAACAAAAAAGACAAAUCUGCCACAAAGCUUGAGAGCAUCUUCGGAUGCAGAGGCGGCAGCCUUCGGUGGCGCGAUAGCGCCAACGUUCUCAACUAUGACACGCAAAACGCGUGCUCCGUUGAAUGGAGUUUAUCAUG

Variants of: B1
Experiment: polymerase ribozyme fitness, log enrichment relative to wild type (log ratio); higher = more active; in vitro selection for triplet polymerase activity
How it was run: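 Fitness compares each genotype's enrichment to that of the wild type on a logarithmic scale, averaging replicates with inverse-variance weights. The logarithm is base 2. Enrichment came from Illumina sequencing of input and output libraries after one triplicate round of in vitro selection, which included frozen incubation at −7 °C, of PCR-built, transcribed mutant libraries of each subunit of a heterodimeric triplet polymerase ribozyme. Only genotypes with ≥10 input reads and ≥1 read per output were kept.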

Variant | polymerase ribozyme fitness (log ratio)
G84U G94A C96A | -3.87
G83U U139G | -0.239
G84U U102C C149G | ≤ -4.2
G83A A115G | -1.64
G84U G100A A106U A137C | ≤ -4.2
G83A U101G A106U U145C | -2.55
C85A C125A | -2.27
C85A C125U | -1.7
G83U U146A | -1.19
G83A A91U G100U | ≤ -4.2
G83U G92C U111A | ≤ -4.2
G84A G94A A98C G124A | -0.811
G84U A89U U104G U127A | ≤ -4.2
G84U C123A | -1.79
G83C C125U U146G | -3.89
G84U G126A | -1.87
G84U G126U | -1.45
U82G G84A G86U C118G | ≤ -4.2
G83U G94U C116A C132G G140U | -3.11
G83U A98C C123U C125U C129A | -3.47
C85A A89G U146C | -2.83
G84U G92C A121U | -2.94
C85A A142C | -3.23
G83A U102C C103G U145G | ≤ -4.2

Variant | polymerase ribozyme fitness (log ratio)
C85A C87U A119U | ≤ -4.2
G84A U104C | -0.421
G83C A115U A120U | -1.99
G83A C85U A106C C132G G140A | ≤ -4.2
C85A | -1.28
U82G C96U A137C | -3.87
C85A C99G | -3.49
C85A C99A | -2.8
U82G C96G C118U G141A A147U | -1.93
G83A U90G G94C A110G G152U | ≤ -4.2
G84U U130A U145C | -4.13
C85A C114U G143A | ≤ -4.2
G83A A115C A122U U134A | -3.03
G84U U134A A142C | ≤ -4.2
G84A C85A G86A G92U U101C | ≤ -4.2
G84C G117C | -1.73
G83U C105G A107G U135G G152C | ≤ -4.2
G83C U109A A115C G140C | ≤ -4.2
G83A C118A C129A | -3.64
C85A A98G C116U A120C A147U | 0.389
U82G G86A A120G | -1.53
U82G C95A A110U A138U | ≤ -4.2
G84C C123G U146G | -2.7
G83A G86U C118U | -3.81

Variant | polymerase ribozyme fitness (log ratio)
G83U G112U | -4
G84U A91G U144G | -1.53
G83A C87A | ≤ -4.2
G83A C114U | -2.41
G83A C95G | -1.23
G83A C95U | -0.657
G83U G94C C116U | -2.08
U82G G86A C96A | -2.04
C85A A91G | -3.36
G84A A106G A142C | -0.922
G84A A97U A147U | 0.467
G83U G94A | -0.328
G83A A97U | 0.538
G83A A97G | -0.594
G84A U101A A115U A121G G124A | ≤ -4.2
U82G G92U C131A | -3.24
G83A G141U G143A | ≤ -4.2
G84A C95G G141C | -0.311
U82G U104C C116U C125U A138C | ≤ -4.2
G83A G117C U145G | -1.38
U82G G128U | -3.35
G84U C87G G88C G143C | ≤ -4.2
G84A C95A | -0.531
G84A C95G | -0.784

Variant | polymerase ribozyme fitness (log ratio)
G83U G92A C125G A138G U151A | ≤ -4.2
G84A A98G C105A | -1.05
G83U U102C | -1.16
G84U C87G U90C C96U U145G | ≤ -4.2
G84A C96A A119U | -1.11
G84A A147C | -0.0528
U82G C99G | -0.787
G84U G94U | -2.37
G83U C99G U145G | ≤ -4.2
G83A G141U | -0.659
G84A U134C | -0.573
G84A U134G | -2.31
U82G G141U | 1.45
G83A A110C C123G | ≤ -4.2
G84A C99U G100U U144A | -4.12
G84A C96G | -0.627
G83U G100U | -3.9
G84A U135A | -1.69
G84U G86C C93G A98U A142U | -1.78
G84C A121U A122C | -1.63
G84U U104G C125A | -3.09
C85A C96U G128A | -4.19
G83U A120U A137C | -3.31
G83A C96U C118U | -0.697

Variant | polymerase ribozyme fitness (log ratio)
G83A C99U | -2.05
G83C C116A A121C | 0.158
G84C A115G | -2.49
G84U G92A | ≤ -4.2
G83U C95U C123U G143U | -3.65
G83C C125A U144A | -2.36
G83C G152C | -3.16
G84C A142G | -3.03
G83A U151A | -3.69
C85A A106G | -2.01
C85A C125A A137G | -2.28
G84U C116U G141C | -4.04
G83C C85G C103A | ≤ -4.2
G83C U101G A106U | -3.95
U82G U101G | 0.433
G84U A137U C149A | ≤ -4.2
U82G G86A | -0.594
U82G G86U | -1.46
U82G G92A | -2.96
G83U C103U | 0.2
G83C C125A G136U | -2.54
G83U G128U | -3.22
G83A G88U C125A G152U | ≤ -4.2
C85A A138G | -3.24

Variant | polymerase ribozyme fitness (log ratio)
G84A U109G | -1.95
G84A A110U | -3.36
G83U A98C A115G | -1.62
G84A C118A U146C | -1.34
G84A A120C C125U G136A | 0.204
U82G C118G | -1.09
G83C G136C U146G | -3.41
C85A G88U C95G A97C | ≤ -4.2
G83U U127A | -3.18
G83A G128A | -3.83
G84A G136C | -3.25
G84A G136A | -0.313
G83C C116A U146G | -3.27
G84C C95A A142C | -1.65
G83C A106G | -0.352
G84U U104G | -2.26
G84A A122G G140A G141A | ≤ -4.2
U82G G84A U145C | -0.385
G84A G136A U148C | -1.66
G83C G136C | -4.09
G83C G136A | -0.101
G84U G136A G141C | -1.29
G83A U101C | -2.23
G83C C93U | -2.49

Variant | polymerase ribozyme fitness (log ratio)
G83C C93G | ≤ -4.2
U82G G100U G128A | ≤ -4.2
G83C C118A A142G | -2.35
G83U A150G | -3.14
G83U C95G G126U | -1.85
G84A A97G C129A G152A | -4
G83C U145C | -2.18
G83C U145G | -0.686
G83U A142C U145C | -3.76
G84C A115C C116U | -3.98
G83U U151A | ≤ -4.2
U82G C87U G92U A98G | -2.69
U82G C96U | -2.13
U82G C96A | 0.287
G84U G86A C93U C123U | -1.15
G84U C103U A137C | ≤ -4.2
G84U C95U | -1.23
G84A G117U U139G U145C | -0.527
G84A C118A | -1.61
G83A A115G A150G | -2.88
G83C U148G G152A | -3.67
C85A C103G A147U | -2.48
G83C C85G A122U | ≤ -4.2

Source: the RNAGym collection of RNA variant scans (doi:10.1073/pnas.2313332121)
